{
  "source": "paper doi:10.1101/2023.02.23.529489",
  "assay_in_all_cases": "flow cytometry on cells",
  "key": {"[1]": {"biological_target": "CD45RABC ECD-GFP (extracellular domain and transmembrane region of CD45RABC, phosphatase domains replaced by GFP) (human)"}, "[2]": {"biological_target": "CD45RO ECD-GFP (extracellular domain and transmembrane region of CD45RO, phosphatase domains replaced by GFP) (human)"}, "[3]": {"biological_target": "full-length human CD45RABC (human) (UniProt P08575)"}, "[4]": {"biological_target": "full-length human CD45RO (human) (UniProt P08575)"}},
  "data": [
    {"substance": "sec49K-His (recombinant N-terminal ectodomain of HAdV-D64 E3/49K, residues 20-353, from insect cells) (domain or fragment)", "values": [
      {"measurement": "EC50", "setting": "[1]", "result": 550, "unit": "pM"},
      {"measurement": "EC50", "setting": "[2]", "result": 540, "unit": "pM"},
      {"measurement": "EC50", "setting": "[3]", "result": 1260, "unit": "pM"},
      {"measurement": "EC50", "setting": "[4]", "result": 1350, "unit": "pM"}
    ]}
  ]
}
